In US7566535B2, “Enhanced oligonucleotide-mediated nucleic acid sequence alteration” (University of Delaware, priority 2002, dated 2009):
In the oligonucleotide strings, read from the 5' end, every base follows the letter of its sugar. An asterisk marks phosphorothioate; unmarked linkages are phosphodiester. Other units and linkages are bracketed, terminal groups are in braces. A string of capitals states the bases alone. d = 2'-deoxy (DNA)

Experiments:
[1] = system: pAURHYG(rep)eGFP; test: In vivo correction of episomal pAURHYG(rep)eGFP in yeast, hygromycin-resistant colonies; conditions: for Average colony count on hygromycin plates / hygromycin-resistant colonies per aureobasidin-resistant colony: wild-type LSY678; for Colonies on Hygromycin / Correction Efficiency / Fold: 5 μg oligo
[2] = system: pAURHYG(rep)eGFP; test: Correction of pAURHYG(rep)eGFP in yeast LSY678 with or without hydroxyurea; conditions: 5 μg oligo (1.62 μg Hyg10)
[3] = system: pAURHYG(x)eGFP; test: Hygromycin gene correction in yeast LSY678 with or without trichostatin A; conditions: 5 μg oligo
[4] = system: pAURHYG(x)eGFP; test: Strand bias of hygromycin gene correction in rad1 and rad10 yeast mutants
[5] = system: pAURHYG(ins)eGFP; test: In vivo correction of episomal pAURHYG(ins)eGFP in yeast; conditions: for Average colony count on hygromycin plates / hygromycin-resistant colonies per aureobasidin-resistant colony: wild-type LSY678; for Colonies on Hygromycin / Correction Efficiency / Fold: 5 μg oligo
[6] = system: CYC1 gene; test: CYC1 gene repair in diploid yeast strains, growth on glycerol (YPG); conditions: YMH55; 5 μg oligo
[7] = Cells both pre-treated and treated during recovery with 50 μg/mL trichostatin A

B1: HygE3T/74: 74-base single-stranded DNA oligonucleotide, three phosphorothioate linkages at each end, SEQ ID NO: 8 (nucleic acid)
DNA: dC*dT*dC*dGdTdGdCdTdTdTdCdAdGdCdTdTdCdGdAdTdGdTdAdGdGdAdGdGdGdCdGdTdGdGdAdTdAdCdGdTdCdCdTdGdCdGdGdGdTdAdAdAdTdAdGdCdTdGdCdGdCdCdGdAdTdGdGdTdTdTdC*dT*dA*dC
[1]; 1.0 μg oligo
  Average colony count on hygromycin plates: 5
  hygromycin-resistant colonies per aureobasidin-resistant colony: 0.03
[1]; 2.5 μg oligo
  Average colony count on hygromycin plates: 99
  hygromycin-resistant colonies per aureobasidin-resistant colony: 0.61
[1]; 5.0 μg oligo
  Average colony count on hygromycin plates: 204
  hygromycin-resistant colonies per aureobasidin-resistant colony: 1.26
[1]; 7.5 μg oligo
  Average colony count on hygromycin plates: 69
  hygromycin-resistant colonies per aureobasidin-resistant colony: 0.42
[1]; 10.0 μg oligo
  Average colony count on hygromycin plates: 19
  hygromycin-resistant colonies per aureobasidin-resistant colony: 0.12
[1]; Msh2 mutant
  Colonies on Hygromycin: 0
  Correction Efficiency: 0
  Fold: 0x
[1]; Msh3 mutant
  Colonies on Hygromycin: 0
  Correction Efficiency: 0
  Fold: 0x
[1]; Msh6 mutant
  Colonies on Hygromycin: 1,270
  Correction Efficiency: 2.35
  Fold: 0.55x
[1]; Pms1 mutant
  Colonies on Hygromycin: 2,280
  Correction Efficiency: 114
  Fold: 26.76x
[1]; Rad1 mutant
  Colonies on Hygromycin: 1,380
  Correction Efficiency: 8.52
  Fold: 2.00x
[1]; Rad2 mutant
  Colonies on Hygromycin: 919
  Correction Efficiency: 3.78
  Fold: 0.89x
[1]; exo1 mutant
  Colonies on Hygromycin: 486
  Correction Efficiency: 3.92
  Fold: 0.92x
[1]; mre11 mutant
  Colonies on Hygromycin: 12
  Correction Efficiency: 0.63
  Fold: 0.15x
[1]; rad10 mutant
  Colonies on Hygromycin: 54
  Correction Efficiency: 0.15
  Fold: 0.04x
[1]; rad23 mutant
  Colonies on Hygromycin: 66
  Correction Efficiency: 0.44
  Fold: 0.10x
[1]; rad50 mutant
  Colonies on Hygromycin: 336
  Correction Efficiency: 2.09
  Fold: 0.49x
[1]; rad51/52 mutant
  Colonies on Hygromycin: 212
  Correction Efficiency: 5.45
  Fold: 1.28x
[1]; rad51 mutant
  Colonies on Hygromycin: 104
  Correction Efficiency: 0.62
  Fold: 0.14x
[1]; rad52 mutant
  Colonies on Hygromycin: 266
  Correction Efficiency: 3.29
  Fold: 0.77x
[1]; rad54 mutant
  Colonies on Hygromycin: 2
  Correction Efficiency: 0.02
  Fold: 0x
[1]; rad55 mutant
  Colonies on Hygromycin: 0
  Correction Efficiency: 0
  Fold: 0x
[1]; rad57 mutant
  Colonies on Hygromycin: 984
  Correction Efficiency: 17.26
  Fold: 4.05x
[1]; rad59 mutant
  Colonies on Hygromycin: 1,198
  Correction Efficiency: 3.06
  Fold: 0.71x
[1]; wild type
  Colonies on Hygromycin: 1,218
  Correction Efficiency: 4.26
  Fold: 1x
[1]; xrs2 mutant
  Colonies on Hygromycin: 29
  Correction Efficiency: 0.66
  Fold: 0.15x
[2]; 20 mM hydroxyurea 4 h pre-treatment, growth time 10 min
  Correction Efficiency: 3.1 hygromycin resistant colonies
[2]; 20 mM hydroxyurea 4 h pre-treatment, growth time 20 min
  Correction Efficiency: 4.9 hygromycin resistant colonies
[2]; 20 mM hydroxyurea 4 h pre-treatment, growth time 40 min
  Correction Efficiency: 9.5 hygromycin resistant colonies
[2]; 20 mM hydroxyurea 4 h pre-treatment, growth time 60 min
  Correction Efficiency: 7.8 hygromycin resistant colonies
[2]; 20 mM hydroxyurea 4 h pre-treatment, growth time 90 min
  Correction Efficiency: 22.4 hygromycin resistant colonies
[2]; no hydroxyurea, growth time 10 min
  Correction Efficiency: 0.15 hygromycin resistant colonies
[2]; no hydroxyurea, growth time 20 min
  Correction Efficiency: 2.9 hygromycin resistant colonies
[2]; no hydroxyurea, growth time 40 min
  Correction Efficiency: 3.4 hygromycin resistant colonies
[2]; no hydroxyurea, growth time 60 min
  Correction Efficiency: 2.32 hygromycin resistant colonies
[2]; no hydroxyurea, growth time 90 min
  Correction Efficiency: 0.56 hygromycin resistant colonies
[3]; [7]
  Correction Efficiency: 2.05 1/10^5
  Hyg^r: 230
[3]; Cells treated during recovery with 50 μg/mL trichostatin A
  Correction Efficiency: 0.34 1/10^5
[3]; No treatment
  Correction Efficiency: 0.16 1/10^5
[4]; rad1 mutant
  Colonies on Hygromycin: 3
[4]; rad10 mutant
  Colonies on Hygromycin: 2
[5]; 1.0 μg oligo
  Average colony count on hygromycin plates: 5
  hygromycin-resistant colonies per aureobasidin-resistant colony: 0.03
[5]; 2.5 μg oligo
  Average colony count on hygromycin plates: 47
  hygromycin-resistant colonies per aureobasidin-resistant colony: 0.29
[5]; 5.0 μg oligo
  Average colony count on hygromycin plates: 199
  hygromycin-resistant colonies per aureobasidin-resistant colony: 1.24
[5]; 7.5 μg oligo
  Average colony count on hygromycin plates: 54
  hygromycin-resistant colonies per aureobasidin-resistant colony: 0.34
[5]; 10.0 μg oligo
  Average colony count on hygromycin plates: 17
  hygromycin-resistant colonies per aureobasidin-resistant colony: 1.10
[5]; Exo1 mutant
  Colonies on Hygromycin: 2
  Correction Efficiency: 0.01
  Fold: 0x
[5]; mre11 mutant
  Colonies on Hygromycin: 3
  Correction Efficiency: 0.09
  Fold: 0.03x
[5]; msh2 mutant
  Colonies on Hygromycin: 0
  Correction Efficiency: 0
  Fold: 0x
[5]; msh3 mutant
  Colonies on Hygromycin: 1
  Correction Efficiency: 0.05
  Fold: 0.02x
[5]; msh6 mutant
  Colonies on Hygromycin: 0
  Correction Efficiency: 0
  Fold: 0x
[5]; pms1 mutant
  Colonies on Hygromycin: 111
  Correction Efficiency: 18.5
  Fold: 5.35x
[5]; rad1 mutant
  Colonies on Hygromycin: 52
  Correction Efficiency: 0.59
  Fold: 0.17x
[5]; rad2 mutant
  Colonies on Hygromycin: 113
  Correction Efficiency: 1.79
  Fold: 0.52x
[5]; rad10 mutant
  Colonies on Hygromycin: 14
  Correction Efficiency: 0.14
  Fold: 0.04x
[5]; rad23 mutant
  Colonies on Hygromycin: 1
  Correction Efficiency: 0.01
  Fold: 0x
[5]; rad50 mutant
  Colonies on Hygromycin: 1
  Correction Efficiency: 0.06
  Fold: 0.02x
[5]; rad51/52 mutant
  Colonies on Hygromycin: 3
  Correction Efficiency: 0.3
  Fold: 0.01x
[5]; rad51 mutant
  Colonies on Hygromycin: 19
  Correction Efficiency: 0.59
  Fold: 0.17x
[5]; rad52 mutant
  Colonies on Hygromycin: 31
  Correction Efficiency: 0.86
  Fold: 0.24x
[5]; rad54 mutant
  Colonies on Hygromycin: 0
  Correction Efficiency: 0
  Fold: 0x
[5]; rad55 mutant
  Colonies on Hygromycin: 0
  Correction Efficiency: 0
  Fold: 0X
[5]; rad57 mutant
  Colonies on Hygromycin: 34
  Correction Efficiency: 0.33
  Fold: 0.10x
[5]; rad59 mutant
  Colonies on Hygromycin: 116
  Correction Efficiency: 2.47
  Fold: 0.71x
[5]; wild type
  Colonies on Hygromycin: 256
  Correction Efficiency: 3.46
  Fold: 1x
[5]; xrs2 mutant
  Colonies on Hygromycin: 6
  Correction Efficiency: 0.04
  Fold: 0.01x
[6]
  C.E.: 0 ×10^−4
  No. of YPG Plate Colonies: 0
